Laboratory results published in US20230074134A1, “METHOD FOR PREPARING SOY LEGHEMOGLOBIN USING ESCHERICHIA COLI” (iNtRON Biotechnology, Inc., priority 2020, published 2023).

Test system: iron-deficiency-anemia-induced animals
Type: in vivo, Sprague-Dawley rats (female)
Experimental: The composition containing soy leghemoglobin prepared according to the present invention was administered to iron-deficiency-anemia-induced animals, whereby the effectiveness of the composition containing soy leghemoglobin on alleviating anemia was evaluated. Specifically, after 2 weeks acclimation period, thirty 9-week old Sprague-Dawley rats (female) were divided into 3 groups of 10 rats per group, among which one group was fed with normal feed in an amount of 10% of body weight daily for one month (Group 1; control), and the remaining two groups were fed with iron-deficient feed in an amount of 10% of body weight daily for 6 weeks to induce iron-deficiency anemia (Group 2 and Group 3). After 6 weeks of feeding, it was confirmed that iron-deficiency anemia was induced in the individual rat belonging to Group 2 and Group 3. Then, one of the anemia-induced groups was orally administered once a day with saline alone (Group 2), and the other anemia-induced group was orally administered once a day with solution containing soy leghemoglobin (0.1 mg Fe/500 μl solution, Group 3). The administration continued for 5 weeks. During 5 weeks of administration to Group 2 and Group 3, Group 1 was continuously fed with normal feed, and Group 2 and Group 3 were fed with iron-deficient feed. […] After 5 weeks of administration, blood was collected, and whether anemia was alleviated was evaluated.

[1] = iron-deficient feed, oral once a day, 0.1 mg Fe/500 μl solution, 5 weeks, blood collected after 5 weeks

B1: soy leghemoglobin (protein)
chain: MGAFTEKQEALVSSSFEAFKANIPQYSVVFYTSILEKAPAAKDLFSFLSNGVDPSNPKLTGHAEKLFGLVRDSAGQLKANGTVVADAALGSIHAQKAITDPQFVVVKEALLKTIKEAVGDKWSDELSSAWEVAYDELAAAIKKAF
modifications: heme cofactor; Soy leghmoglobin
- Alleviation of iron-deficiency anemia (conclusion) (anemia-induced rats, 5 weeks oral administration): effective at alleviating iron-deficiency anemia
- Weight of rats on 5 weeks after administration (iron-deficient feed, oral once a day, 0.1 mg Fe/500 μl solution, 5 weeks, anemia-induced female Sprague-Dawley rats): 369.3 ± 1.1 g
- Blood test Hematocrit [1]: 31.8 ± 1.9%
- Blood test Hemoglobin content [1]: 14.2 ± 0.4 g/dL
